Results reported in US5635216A, “Microparticle compositions containing peptides, and methods for the preparation thereof” (Eli Lilly and Company, priority 1993, dated 1997).

Assays:
finishing swine [1] = assay: Serum growth hormone levels in finishing swine after subcutaneous injection; format: in vivo; conditions: b137 study, FIGS. 3 and 4; barrows, 3 micrograms/kg/day injected twice per day; all time periods for 15 days
Procedure: (§1) The microparticles prepared in accordance with the previous examples were used to determine the effect of somatogenin (LY293404) concentration in different PLA/PGA microparticle concentrations. Payout characteristics were measured by urinary urea nitrogen excretion and serum growth hormone levels in finishing swine. The microparticle formulations were placed in suspension, using 2% W/V sodium carboxyl-methyl-cellulose 330 (NaCMC) in Nano-pure II purified water. The suspension was injected subcutaneously in the flank. […] Urinary nitrogen reduction is a measurement of growth hormone which is stimulated by somatogenin release from microparticles. […] The reduction was the greatest for the highest loaded (25%) microparticles, and lowest for the lowest (5%) loaded microparticles. […] The vertical bars in the figures represent the relative standard deviations. The microparticles prepared in accordance with the previous examples were used to determine the payout characteristics of somatogenin (LY293404) when administered in different PLA/PLG microparticle formulations as measured by urinary urea nitrogen excretion and serum growth hormone levels in finishing swine. The microparticle formulations were placed in suspension, using 2% W/V sodium carboxyl-methyl-cellulose 330 (NaCMC) in Nano-pure II purified water. The suspension was injected subcutaneously in the flank. […]

finishing swine [2] = assay: Urinary urea nitrogen excretion in finishing swine after subcutaneous injection; format: in vivo; conditions: b137 study, FIGS. 3 and 4; barrows, 3 micrograms/kg/day injected twice per day; all time periods for 15 days
Procedure: as §1

B1: 4-methylhippuroyl (1) porcine GHRH (2-76)--OH (peptide)
chain: GADAIFTNNYRRVLTQLSARRLLQDILSRQQGERNQEQGARVRLGRQVDSLWADQRQLALESILATLLQEHRNSQG
modifications: 4-methylhippuroyl N-terminus
notes: analog of a natural porcine GHRH prohormone
With B1 the “serum GH levels” value (finishing swine [1]) was “elevation” and the urinary urea excretion (finishing swine [2]) was “reduction”.
